Source: patent publication US20260232802A1 (published 2026)

Columns and labels:
[1] = target: T1, Human Telomerase Reverse Transcriptase (hTERT) peptide on HLA-A*03:01 (human); assay: multimer staining
T1 peptide: SVLNYERARR

[2] = target: T2, Survivin (BIRC5), modified form of the peptide peptide on HLA-A*02:01 (human); assay: multimer staining
T2 peptide: LMLGEFLKL

[3] = target: T3, Survivin (BIRC5) peptide on HLA-A*02:01 (human); assay: killing
T3 peptide: LTLGEFLKL
Protocol: (A) Survivin-specific transgenic T cells were co-cultured with Survivin⁺ primary AML blasts expressing (target blasts) or not (control blasts) the HLA-A0201⁺ allele in 1:1 effector to target ratio. After 24 hours, elimination index was calculated as [1-(number of alive blasts cultured with edited T cells/number of alive blasts alone)]. (B) Survivin-specific transgenic T cells were co-cultured with Survivin⁺ primary AML blasts expressing (target blasts, upper) or not (control blasts, lower) the HLA-A0201⁺ allele in 1:1 effector to target ratio. Killing is represented as area covered (μm²) by cells undergoing apoptosis (caspase 3/7 activation) overtime. […] Data are presented as means±SD. ****P<0.0001, by Student t-test (A) or two-way ANOVA (B).
For killing assay cells were plated and kept at 37° C. and 5% CO2 after the addition of anti-CD28 monoclonal antibodies (1 μg/ml; BD biosciences) for 72 hours in case of co-culture with cell lines, and for 24 hours for co-cultures with primary AML blasts. […] Viable target cells were counted using counting beads (Flow-count fluorospheres, Beckman Coulter), according to manufacturer's instructions. Elimination index was calculated according to the formula: [1-(number of alive target cells in culture with effector T cells/number of alive target cells in control culture)]. […] Data were analyzed by FlowJo software version 10 (BD).

B1: hTERT #1 (TCR, V domains shown)
Valpha: GENVEQHPSTLSVQEGDSAVIKCTYSDSASNYFPWYKQELGKRPQLIIDIRSNVGEKKDQRIAVTLNKTAKHFSLHITETQPEDSAVYFCADWVDMRFGAGTRLTVKP
Vbeta: GAVVSQHPSWVICKSGTSVKIECRSLDFQATTMFWYRQFPKQSLMLMATSNEGSKATYEQGVEKDKFLINHASLTLSTLTVTSAHPEDSSFYICSAPLDRGSNQPQHFGDGTRLSIL
binding result [1]: recognises

B2: hTERT #2 (TCR, V domains shown)
Valpha: GQNIDQPTEMTATEGAIVQINCTYQTSGFNGLFWYQQHAGEAPTFLSYNVLDGLEEKGRFSSFLSRSKGYSYLLLKELQMKDSASYLCAVSRPNSGYSTLTFGKGTMLLVSP
Vbeta: AAGVIQSPRHLIKEKRETATLKCYPIPRHDTVYWYQQGPGQDPQFLISFYEKMQSDKGSIPDRFSAQQFSDYHSELNMSSLELGDSALYFCASSVRTPSGQETQYFGPGTRLLVL
binding result [1]: recognises

B3: hTERT #3 (TCR, V domains shown)
Valpha: KDQVFQPSTVASSEGAVVEIFCNHSVSNAYNFFWYLHFPGCAPRLLVKGSKPSQQGRYNMTYERFSSSLLILQVREADAAVYYCAVETGGGATNKLIFGTGTLLAVQP
Vbeta: NAGVTQTPKFQVLKTGQSMTLQCAQDMNHNSMYWYRQDPGMGLRLIYYSASEGTTDKGEVPNGYNVSRLNKREFSLRLESAAPSQTSVYFCASSEFWLTQETQYFGPGTRLLVL
binding result [1]: recognises

B4: hTERT #4 (TCR, V domains shown)
Valpha: GIQVEQSPPDLILQEGANSTLRCNFSDSVNNLQWFHQNPWGQLINLFYIPSGTKQNGRLSATTVATERYSLLYISSSQTTDSGVYFCAVSHGRGGATNKLIFGTGTLLAVQP
Vbeta: NAGVTQTPKFQVLKTGQSMTLQCAQDMNHNSMYWYRQDPGMGLRLIYYSASEGTTDKGEVPNGYNVSRLNKREFSLRLESAAPSQTSVYFCASDRVLGYEQYFGPGTRLTVT
binding result [1]: recognises

B5: Survivin TCR (TCR, V domains shown)
Valpha: SQKIEQNSEALNIQEGKTATLTCNYTNYSPAYLQWYRQDPGRGPVFLLLIRENEKEKRKERLKVTFDTTLKQSLFHITASQPADSATYLCALDRMDSSYKLIFGSGTRLLVRP
Vbeta: NAGVTQTPKFQVLKTGQSMTLQCAQDMNHEYMSWYRQDPGMGLRLIHYSVGAGITDQGEVPNGYNVSRSTTEDFPLRLLSAAPSQTSVYFCASSYDQDGEAFFGQGTRLTVV
binding result [2]: recognises | binding result [3]: recognises
